Test results published in FireProtDB (doi:10.1021/bi0015717).
Where “and” joins values, the source holds several entries; their conditions need not be identical. Equal values may be shown once.

B1: Lysozyme C, P61626 (parent)
chain: MKALIVLGLVLLSVTVQGKVFERCELARTLKRLGMDGYRGISLANWMCLAKWESGYNTRATNYNAGDRSTDYGIFQINSRYWCNDGKTPGAVNACHLSCSALLQDNIADAVACAKRVVRDPQGIRAWVAWRNRCQNRDVRQYVQGCGV

Variants of: B1
Details: Homo sapiens; pH 2.5; Thermal; DSC; glycine-HCl 0.05 M; reversible: yes; structure 1LZ1; whole UniProt chain shown

Row | Variant | Tm [°C] | unfolding enthalpy (calorimetric) [kcal/mol]
1 | MKALIVLGLVLLSVTVQGKVFERCELARTLKRLGMDGYRGISLANWMCLAKWESGYNTRATNYNAGDRSTDYGIFQINSRYWCNDGKTPGAMNACHLSCSALLQDNIADAVACAKRVVRDPQGIRAWVAWRNRCQNRDVRQYVQGCGV [V92M] | 63.4 | 107
2 | MKALIVLGLVLLSVTVQGKIFERCELARTLKRLGMDGYRGISLANWMCLAKWESGYNTRATNYNAGDRSTDYGIFQINSRYWCNDGKTPGAVNACHLSCSALLQDNIADAVACAKRVVRDPQGIRAWVAWRNRCQNRDVRQYVQGCGV [V20I] | 65.1 | 108

Same assay, conditions: Homo sapiens; pH 2.7; 64.9 °C; Thermal; DSC; glycine-HCl 0.05 M; reversible: yes; structure 1LZ1; whole UniProt chain shown

Row | Variant | ddG of mutation (higher = less stable) [kcal/mol]
3 | MKALIVLGLVLLSVTVQGKVFERCELARTLKRLGMDGYRGISLANWMCLAKWESGYNTRATNYNAGDRSTDYGIFQINSRYWCNDGKTPGAMNACHLSCSALLQDNIADAVACAKRVVRDPQGIRAWVAWRNRCQNRDVRQYVQGCGV [V92M] | -0.65
4 | MKALIVLGLVLLSVTVQGKIFERCELARTLKRLGMDGYRGISLANWMCLAKWESGYNTRATNYNAGDRSTDYGIFQINSRYWCNDGKTPGAVNACHLSCSALLQDNIADAVACAKRVVRDPQGIRAWVAWRNRCQNRDVRQYVQGCGV [V20I] | -1.1
5 | MKALIVLGLVLLSVTVQGKMFERCELARTLKRLGMDGYRGISLANWMCLAKWESGYNTRATNYNAGDRSTDYGIFQINSRYWCNDGKTPGAVNACHLSCSALLQDNIADAVACAKRVVRDPQGIRAWVAWRNRCQNRDVRQYVQGCGV [V20M] | 0.31

Same assay, conditions: Homo sapiens; pH 2.7; Thermal; DSC; glycine-HCl 0.05 M; reversible: yes; structure 1LZ1; whole UniProt chain shown

Row | Variant | Tm | change of melting temperature, mutant - wild type (higher = more stable) [°C] | heat capacity change of unfolding [kcal/mol/K] | unfolding enthalpy (calorimetric)
6 | MKALIVLGLVLLSVTVQGKVFERCELARTLKRLGMDGYRGISLANWMCLAKWESGYNTRATNYNAGDRSTDYGIFQINSRYWCNDGKTPGAMNACHLSCSALLQDNIADAVACAKRVVRDPQGIRAWVAWRNRCQNRDVRQYVQGCGV [V92M] | 66.9 °C and 64.9 °C | 2 | 1.58 | 113 kcal/mol and 109 kcal/mol
7 | MKALIVLGLVLLSVTVQGKIFERCELARTLKRLGMDGYRGISLANWMCLAKWESGYNTRATNYNAGDRSTDYGIFQINSRYWCNDGKTPGAVNACHLSCSALLQDNIADAVACAKRVVRDPQGIRAWVAWRNRCQNRDVRQYVQGCGV [V20I] | 68 °C and 68.3 °C and 64.9 °C | 3.4 | 1.58 | 114 kcal/mol and 108 kcal/mol
8 | MKALIVLGLVLLSVTVQGKMFERCELARTLKRLGMDGYRGISLANWMCLAKWESGYNTRATNYNAGDRSTDYGIFQINSRYWCNDGKTPGAVNACHLSCSALLQDNIADAVACAKRVVRDPQGIRAWVAWRNRCQNRDVRQYVQGCGV [V20M] | 63.9 °C | -1 | 1.55 | 113 kcal/mol

Same assay, conditions: Homo sapiens; pH 2.83; Thermal; DSC; glycine-HCl 0.05 M; reversible: yes; structure 1LZ1; whole UniProt chain shown

Row | Variant | Tm [°C] | unfolding enthalpy (calorimetric) [kcal/mol]
9 | MKALIVLGLVLLSVTVQGKVFERCELARTLKRLGMDGYRGISLANWMCLAKWESGYNTRATNYNAGDRSTDYGIFQINSRYWCNDGKTPGAMNACHLSCSALLQDNIADAVACAKRVVRDPQGIRAWVAWRNRCQNRDVRQYVQGCGV [V92M] | 69.4 | 117

Same assay, conditions: Homo sapiens; pH 3.1; Thermal; DSC; glycine-HCl 0.05 M; reversible: yes; structure 1LZ1; whole UniProt chain shown

Row | Variant | Tm [°C] | unfolding enthalpy (calorimetric) [kcal/mol]
10 | MKALIVLGLVLLSVTVQGKVFERCELARTLKRLGMDGYRGISLANWMCLAKWESGYNTRATNYNAGDRSTDYGIFQINSRYWCNDGKTPGAMNACHLSCSALLQDNIADAVACAKRVVRDPQGIRAWVAWRNRCQNRDVRQYVQGCGV [V92M] | 73.2 | 123

Same assay, conditions: Homo sapiens; pH 3.2; Thermal; DSC; glycine-HCl 0.05 M; reversible: yes; structure 1LZ1; whole UniProt chain shown

Row | Variant | Tm [°C] | unfolding enthalpy (calorimetric) [kcal/mol]
11 | MKALIVLGLVLLSVTVQGKVFERCELARTLKRLGMDGYRGISLANWMCLAKWESGYNTRATNYNAGDRSTDYGIFQINSRYWCNDGKTPGAMNACHLSCSALLQDNIADAVACAKRVVRDPQGIRAWVAWRNRCQNRDVRQYVQGCGV [V92M] | 75 | 125

Same assay, conditions: Homo sapiens; pH 2.92; Thermal; DSC; glycine-HCl 0.05 M; reversible: yes; structure 1LZ1; whole UniProt chain shown

Row | Variant | Tm [°C] | unfolding enthalpy (calorimetric) [kcal/mol]
12 | MKALIVLGLVLLSVTVQGKIFERCELARTLKRLGMDGYRGISLANWMCLAKWESGYNTRATNYNAGDRSTDYGIFQINSRYWCNDGKTPGAVNACHLSCSALLQDNIADAVACAKRVVRDPQGIRAWVAWRNRCQNRDVRQYVQGCGV [V20I] | 72.2 | 119

Same assay, conditions: Homo sapiens; pH 3.13; Thermal; DSC; glycine-HCl 0.05 M; reversible: yes; structure 1LZ1; whole UniProt chain shown

Row | Variant | Tm [°C] | unfolding enthalpy (calorimetric) [kcal/mol]
13 | MKALIVLGLVLLSVTVQGKIFERCELARTLKRLGMDGYRGISLANWMCLAKWESGYNTRATNYNAGDRSTDYGIFQINSRYWCNDGKTPGAVNACHLSCSALLQDNIADAVACAKRVVRDPQGIRAWVAWRNRCQNRDVRQYVQGCGV [V20I] | 75.5 | 125

Same assay, conditions: Homo sapiens; pH 2.52; Thermal; DSC; glycine-HCl 0.05 M; reversible: yes; structure 1LZ1; whole UniProt chain shown

Row | Variant | Tm [°C] | unfolding enthalpy (calorimetric) [kcal/mol]
14 | MKALIVLGLVLLSVTVQGKMFERCELARTLKRLGMDGYRGISLANWMCLAKWESGYNTRATNYNAGDRSTDYGIFQINSRYWCNDGKTPGAVNACHLSCSALLQDNIADAVACAKRVVRDPQGIRAWVAWRNRCQNRDVRQYVQGCGV [V20M] | 60.6 | 106

Same assay, conditions: Homo sapiens; pH 2.73; Thermal; DSC; glycine-HCl 0.05 M; reversible: yes; structure 1LZ1; whole UniProt chain shown

Row | Variant | Tm [°C] | unfolding enthalpy (calorimetric) [kcal/mol]
15 | MKALIVLGLVLLSVTVQGKMFERCELARTLKRLGMDGYRGISLANWMCLAKWESGYNTRATNYNAGDRSTDYGIFQINSRYWCNDGKTPGAVNACHLSCSALLQDNIADAVACAKRVVRDPQGIRAWVAWRNRCQNRDVRQYVQGCGV [V20M] | 64.5 | 112

Same assay, conditions: Homo sapiens; pH 2.94; Thermal; DSC; glycine-HCl 0.05 M; reversible: yes; structure 1LZ1; whole UniProt chain shown

Row | Variant | Tm [°C] | unfolding enthalpy (calorimetric) [kcal/mol]
16 | MKALIVLGLVLLSVTVQGKMFERCELARTLKRLGMDGYRGISLANWMCLAKWESGYNTRATNYNAGDRSTDYGIFQINSRYWCNDGKTPGAVNACHLSCSALLQDNIADAVACAKRVVRDPQGIRAWVAWRNRCQNRDVRQYVQGCGV [V20M] | 68.3 | 118

Same assay, conditions: Homo sapiens; pH 3.09; Thermal; DSC; glycine-HCl 0.05 M; reversible: yes; structure 1LZ1; whole UniProt chain shown

Row | Variant | Tm [°C] | unfolding enthalpy (calorimetric) [kcal/mol]
17 | MKALIVLGLVLLSVTVQGKMFERCELARTLKRLGMDGYRGISLANWMCLAKWESGYNTRATNYNAGDRSTDYGIFQINSRYWCNDGKTPGAVNACHLSCSALLQDNIADAVACAKRVVRDPQGIRAWVAWRNRCQNRDVRQYVQGCGV [V20M] | 70.6 | 122

Same assay, conditions: Homo sapiens; pH 3.31; Thermal; DSC; glycine-HCl 0.05 M; reversible: yes; structure 1LZ1; whole UniProt chain shown

Row | Variant | Tm [°C] | unfolding enthalpy (calorimetric) [kcal/mol]
18 | MKALIVLGLVLLSVTVQGKMFERCELARTLKRLGMDGYRGISLANWMCLAKWESGYNTRATNYNAGDRSTDYGIFQINSRYWCNDGKTPGAVNACHLSCSALLQDNIADAVACAKRVVRDPQGIRAWVAWRNRCQNRDVRQYVQGCGV [V20M] | 74.2 | 127
